Measurements reported in paper PMC10798138 (Journal of inorganic biochemistry, 2023).
Where a chain is given by its changes, count along the chain named. Names and notes keep the numbering of the source.

T1: bovine Adrenodoxin reductase (bovine, UniProt P08165 33-492)
T1 sequence: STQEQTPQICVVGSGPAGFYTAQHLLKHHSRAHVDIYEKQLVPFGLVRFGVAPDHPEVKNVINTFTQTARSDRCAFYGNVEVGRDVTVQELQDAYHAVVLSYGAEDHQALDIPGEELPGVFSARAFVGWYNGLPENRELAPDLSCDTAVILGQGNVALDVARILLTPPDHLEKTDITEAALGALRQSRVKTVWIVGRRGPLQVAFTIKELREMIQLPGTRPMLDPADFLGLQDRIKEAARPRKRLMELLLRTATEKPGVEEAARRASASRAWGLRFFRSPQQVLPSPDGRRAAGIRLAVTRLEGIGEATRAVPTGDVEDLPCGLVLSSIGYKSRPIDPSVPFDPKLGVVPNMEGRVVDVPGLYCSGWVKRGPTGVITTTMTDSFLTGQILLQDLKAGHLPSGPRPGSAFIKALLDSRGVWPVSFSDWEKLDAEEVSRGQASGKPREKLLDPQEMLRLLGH

B1: full-length human Adrenodoxin with the L80V mutation (natural protein, UniProt P10109 62-184, looked up)
chain: SSEDKITVHFINRDGETLTTKGKVGDSLLDVVVENNLDIDGFGACEGTLACSTCHLIFEDHIYEKLDAITDEENDMLDVAYGLTDRSRLGCQICLTKSMDNMTVRVPETVADARQSIDVGKTS
B2: full-length human Adrenodoxin (Ferredoxin 1), hAdx (2–124) (natural protein, UniProt P10109 62-184, looked up)
chain: B1 chain with V79L

Assays:
[1] = target: the molecule itself; assay: SEC
[2] = target: T1, bovine Adrenodoxin reductase; assay: NMR titration

Row | Binder | binding result [1] | binding result [2]
1 | B1 | binds | 
2 | B2 |  | binds
